The subject of data set [1] is T1, vIRF4^202-216 peptide (vif1).
T1 sequence: SVWIPVNEGASTSGM
In words: competitive ITC: vIRF4^202-216 titrated into TRAF pre-titrated with MDM2^137-152 (competitor).

The test system is the same in data set [2]. Briefly: competitive ITC: vIRF4^202-216 titrated into TRAF pre-titrated with p53^350-364 (competitor).
Data set [3] has the same test system. Briefly: competitive ITC: vIRF4^202-216 titrated into TRAF pre-titrated with p53^355-369 (competitor).

Sequence of HAUSP TRAF domain (HAUSP^62-205) (Q93009 62-205): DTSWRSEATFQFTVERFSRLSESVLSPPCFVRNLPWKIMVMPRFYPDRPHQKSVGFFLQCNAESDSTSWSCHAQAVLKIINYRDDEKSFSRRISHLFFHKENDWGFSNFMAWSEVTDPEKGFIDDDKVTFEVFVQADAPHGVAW

In the case of HAUSP TRAF domain (HAUSP^62-205), the Kobs (observed association constant) in data set [1] came out at 1.09e+07 M⁻¹; in data set [2] it was 4.42e+07 M⁻¹; in data set [3], 3.58e+07 M⁻¹.

The values are drawn from patent US20130330358.
